Biological target: GPC3 (glypican-3) on HEPG2 human liver cancer cells (human, UniProt P51654 25-580)
Assay: cell-based or functional assay

Chain of GPC3 (glypican-3) on HEPG2 human liver cancer cells (P51654 25-580): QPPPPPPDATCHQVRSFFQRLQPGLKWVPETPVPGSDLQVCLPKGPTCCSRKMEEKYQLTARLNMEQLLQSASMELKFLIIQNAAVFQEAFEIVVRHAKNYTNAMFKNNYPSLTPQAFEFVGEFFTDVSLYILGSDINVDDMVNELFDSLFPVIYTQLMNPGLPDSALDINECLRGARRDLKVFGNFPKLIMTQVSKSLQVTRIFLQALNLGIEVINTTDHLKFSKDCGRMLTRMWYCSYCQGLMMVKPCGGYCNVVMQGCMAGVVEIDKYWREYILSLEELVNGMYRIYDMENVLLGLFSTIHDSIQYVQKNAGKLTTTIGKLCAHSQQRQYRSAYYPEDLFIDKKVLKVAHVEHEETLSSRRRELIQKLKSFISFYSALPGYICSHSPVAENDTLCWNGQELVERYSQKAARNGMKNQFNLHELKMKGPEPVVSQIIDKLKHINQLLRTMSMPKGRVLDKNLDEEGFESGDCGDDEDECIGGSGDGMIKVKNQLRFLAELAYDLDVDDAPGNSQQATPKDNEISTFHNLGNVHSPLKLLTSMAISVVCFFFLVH

B1: anti-GPC3 CSR (chimeric co-stimulatory receptor: anti-GPC3 scFv fused to CD28 transmembrane and intracellular signaling sequences) (other)
chain: QSVLTQPPSVSAAPGQRVTISCSGTRSNIGSDYVSWYQHLPGTAPKLLVYGDNLRPSGIPDRFSASKSGTSATLGITGLQTGDEADYYCGTWDYTLNGVVFGGGTKLTVLGSRGGGGSGGGGSGGGGSLEMAQVQLVESGGGLVQPGGSLRLSCAASGFTFSSYAMSWVRQAPGKGLEWVSVIYSGGSSTYYADSVKGRFTISRDNSKNTLYLQMNSLRAEDTAVYYCARTSYLNHGDYWGQGTLVTVSSAAAIEVMYPPPYLDNEKSNGTIIHVKGKHLCPSPLFPGPSKPFWVLVVVGGVLACYSLLVTVAFIIFWVRSKRSRLLHSDYMNMTPRRPGPTRKHYQPYAPPRDFAAYRS
- specific killing of HEPG2 (AFP+/GPC3+) target cells by T cells expressing anti-AFP caTCR-1 (caTCR-1-0 or caTCR-1-TM5) and the anti-GPC3 CSR; Cytox 96 LDH assay, E:T 2.5:1, 16 hr: 55 to 65%

— patent US20240317855A1 (EUREKA THERAPEUTICS, published 2024)
